Columns and labels:
Test in all cases: EMSA; 20 mM HEPES pH 7.4, 100 mM NaCl, 1 mM MgCl2, 1 mg/ml BSA, 2 mM DTT, 5% glycerol; 30 min on ice; native 5% PAGE in 1X TBE
Conditions in all cases: protein: recombinant; tags: GST cleaved; GPLGS left at N-terminus; blunt
[1] = molecular target: STK19 R215E/R216E (human, UniProt P49842 31-254, R215E;R216E)
[2] = molecular target: STK19 K186E (human, UniProt P49842 31-254, K186E)
[3] = molecular target: STK19 R200E/K201E/K203E (human, UniProt P49842 31-254, R200E;K201E;K203E)
Sequence of STK19 R200E/K201E/K203E (P49842 31-254 R200E/K201E/K203E): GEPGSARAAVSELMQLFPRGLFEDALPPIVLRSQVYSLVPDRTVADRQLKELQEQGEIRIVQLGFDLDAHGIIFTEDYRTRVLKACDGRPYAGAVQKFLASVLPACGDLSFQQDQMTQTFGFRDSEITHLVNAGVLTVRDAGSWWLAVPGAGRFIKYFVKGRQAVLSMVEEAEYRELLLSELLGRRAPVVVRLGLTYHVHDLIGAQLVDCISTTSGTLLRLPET

Measured: binding result

Sequence of STK19 R215E/R216E (P49842 31-254 R215E/R216E): as the sequence (P49842 31-254 R200E/K201E/K203E) above, with E170R, E171K, E173K, R185E, R186E counted along it
Sequence of STK19 K186E (P49842 31-254 K186E): as the sequence (P49842 31-254 R200E/K201E/K203E) above, with K156E, E170R, E171K, E173K counted along it

B1: 59 bp dsDNA (dsDNA)
DNA 1: GAGCTGCCGAATTCTACCAGTGCCTTGCTAGGACATCTTTGCCCACCTGCAGGTTCACC
DNA 2: GGTGAACCTGCAGGTGGGCAAAGATGTCCTAGCAAGGCACTGGTAGAATTCGGCAGCTC
no binding: all assays above

From article PMC11189558, “Mutations found in cancer patients compromise DNA binding of the winged helix protein STK19”
